As a reminder, the Kd is a measure of binding affinity in units of concentration. Low readings indicate higher affinity, high ones lower affinity.

To fix the notation:
B1: PRSIM_23: Tn3 protein specific for HCV NS3/4A PR (S139A):simeprevir complex, SEQ ID NO: 5 (protein)
chain: RLDAPSQIEVKDVTDTTALITWVDPRYDDIWWFELTYGIKDVPGDRTTIKLYLNDPYYSIGNLKPDTEYEVSLISYTGDSYSRSGSNPAKITFKTGL
modifications: PRSIM_23
B2: PRSIM_33: Tn3 PRSIM binding molecule, SEQ ID NO: 7 (protein)
chain: RLDAPSQIEVKDVTDTTALITWYPPGRWYDDIWYFELTYGIKDVPGDRTTIKLARGDDVYSIGNLKPDTEYEVSLISWGPDRGDRAGSNPAKITFKTGL
modifications: PRSIM_33
B3: PRSIM_75: scFv PRSIM binding molecule, SEQ ID NO: 15 (protein)
scFv: EVQLVQSGAEVKKPGSSVKVSCKASGGSFNSYTLDWVRQAPGQGLEWMGGIIPVFGSPNYGQKFQGRVTITADESTSTAYMELSSLKSDDTAVYYCARGLVYQPLDSWGRGTLVTVSSGGGGSGGGGSGGGGSAQAVLTQPSSASGTPGQRVTISCSGSSSNIGSYTVNWYQQFPGTAPKLLIYSNTQRPSGVPDRFSGSKSGTSASLAISGLQSEDEADYYCAAWDDSLNGWVFGGGTKVTVL
modifications: PRSIM_75
B4: PRSIM_67: scFv PRSIM binding molecule, SEQ ID NO: 13 (protein)
scFv: EVQLVQSGAEVKKPGAAVRISCKTSGYVFTSYYVHWVRQAPGQGLEWMGVINPSGGNTNYAQKFQDRVTMTRDTSTTTVYMELSSLMFDDTAVYYCAKRDYGGPLANWGRGTLVTVSSGGGGSGGGGSGGGGSALSYELTQPPSVSEAPRQRVTISCSGSSSNIGNNAVNWYQQLPGKAPKLLIFYDDLLPSGVSDRFSGSKSGTSASLAISGLQSEDEADYYCAAWDDSLNGLVFGTGTKLTVL
modifications: PRSIM_67
B5: PRSIM_04: scFv PRSIM binding molecule, SEQ ID NO: 11 (protein)
scFv: QVQLVQSGAEVKKPGSSVKVSCKASGGTFSSYAISWVRQAPGQGLEWMGGIIPIFGTANYAQKFQGRVTITADESTSTAYMELSSLRSEDTAVYYCARGMAHFYQFDLWGQGTLVTVSSGGGGSGGGGSGGGGSAQSVLTQPPSASGTPGQRVTISCSGSSSNIGSNTVNWYQQLPGTAPKLLIYSNNQRPSGVPDRFSGSKSGTSASLAISGLQSEDEADYYCAAGDHDHEHVVFGGGTKLTVL
modifications: PRSIM_04
B6: PRSIM_72: scFv PRSIM binding molecule, SEQ ID NO: 14 (protein)
scFv: B5 scFv
modifications: PRSIM_72
B7: PRSIM_57: scFv specific for HCV NS3/4A PR (S139A):simeprevir complex, SEQ ID NO: 12 (protein)
scFv: QVQLVQSGAEVKKPGSSVKVSCKASGGTFSSYAISWVRQAPGQGLEWMGGIIPIFGTANYAQKFQGRVTITADESTSTAYMELSSLRSEDTAVYYCARHTNYITVFDYWGQGTLVTVSSGGGGSGGGGSGGGGSAQSVLTQPPSASGTPGQRVTISCSGSSSNIGSNTVNWYQQLPGTAPKLLIYSNNQRPSGVPDRFSGSKSGTSASLAISGLQSEDEADYYCAAWDHHWEQVVFGGGTKLTVL
modifications: PRSIM_57

In the first experiment the target is T1, HCV NS3/4A PR (S139A) (Hepatitis C virus subtype 1a, UniProt A8DG50, A1066T/I1043Q/I1044E/L1039E/L1040E/L1047Q/S1165A, form not given). Description: HTRF binding screen. The following applies: in the presence of simeprevir. Here is the method: scFv and Tn3 PRSIM binding molecules that were selective for the HCV NS3/4A PR (S139A) were identified in homogeneous time-resolved fluorescence (HTRF®) assays run in parallel to measure binding in the presence and absence of simeprevir. HCV NS3/4A PR (S139A), and serial dilutions of purified PRSIM binding molecules, were prepared in assay buffer (PBS containing 0.4 M potassium fluoride and 0.1% BSA). Streptavidin cryptate (Cisbio) was pre-mixed with either anti-FLAG XL665 (to detect the Tn3 molecules) or anti-c-myc XL665 (to detect the scFv molecules) in assay buffer. For each assay 2.5 μl of sample titration was added to 2.5 μl HCV NS3/4A PR (S139A) and 2.5 μl of pre-mixed detection reagents. Either 2.5 μl simeprevir or 2.5 μl of a DMSO blank were also added to each well. Background was defined using wells with zero sample addition. Assay plates were incubated overnight at 4° C., prior to reading the time resolved fluorescence at 620 nm and 665 nm emission wavelengths using a PerkinElmer Envision plate reader. Data was analysed by calculating % Delta F values for each sample. Delta F was determined according to equation 1.
% Delta F=((sample 665 nm/620 nm ratio value)−(background 665 nm/620 nm ratio value)/(background 665 nm/620 nm ratio value))×100 Equation 1
Selective binding molecules are defined as those scFv and Tn3 PRSIM binding molecules that bind to HCV NS3/4A PR (S139A) in complex with simeprevir and no binding to HCV NS3/4A PR (S139A).
A general note: Time-resolved FRET reads energy transfer from a long-lived donor to a nearby acceptor.
For the molecule B1, the “HTRF max. signal (% delta F)” value was determined as 1573 % delta F.

For B2, the “HTRF max. signal (% delta F)” value is given as 1704 % delta F.

In the case of B3, the “HTRF max. signal (% delta F)” value was found to be 1030 % delta F.

In the case of B4, the “HTRF max. signal (% delta F)” value came out at 1708 % delta F.

Take B5: the “HTRF max. signal (% delta F)” value was 1055 % delta F.

For the molecule B6, the “HTRF max. signal (% delta F)” value is listed as 1107 % delta F.

For the molecule B7, the “HTRF max. signal (% delta F)” value is recorded as 1076 % delta F.

Another experiment deals with T1, HCV NS3/4A PR (S139A). Description: Biacore 8K binding kinetics of PRSIM binding molecules. The following applies: 10 nM simeprevir present. Here is the method: The scFv and Tn3 PRSIM binding molecules were covalently immobilised to a CM5 chip surface using standard amine coupling techniques at a concentration of 1 μg/ml in 10 mM sodium acetate pH 4.5.
The HCV NS3/4A PR (S139A), or BSA control, was diluted 1:4 (1.25-20 nM)±10 nM simeprevir in 10 mM Hepes pH 7.4, 150 mM NaCl, 0.05% Surfactant P20, 0.01% DMSO, ensuring constant simeprevir and DMSO concentration. The samples were flowed over the chip at 50 μl/min using single cycle kinetics, with 120 sec association and 600 sec dissociation. The chip surface was regenerated with two 20 sec pulses of 10 mM Glycine-HCl pH 3.0. The final sensorgrams were analysed using the Biacore 8K Evaluation Software and the affinity constant KD was determined using a 1:1 binding model. The same method was used for measuring the affinity of the HCV NS3/4A PR mutants for PRSIM_23 with minor deviations. The mutants were diluted 1:4 (2.5-40 nM)±simeprevir in 10 mM Hepes pH 7.4, 150 mM NaCl, 0.05% Surfactant P20, 0.08% DMSO, ensuring constant simeprevir and DMSO concentration. The samples were flowed over the chip at 50 μl/min using single cycle kinetics, with 180 sec association and 600 sec dissociation.
(In general: SPR reads the build-up and loss of mass on a sensor chip optically.)
B1 returned a dissociation constant Kd of 6.3 nM, an Rmax of 284 RUs, a ka of 5.03e+06 M⁻¹ s⁻¹ and a kd of 0.0318 s⁻¹.

With B2, the Rmax was 171.9 RUs, the ka was found to be 3.65e+06 M⁻¹ s⁻¹ and the kd stood at 0.0303 s⁻¹.

B3 came in with a Kd of 0.3 nM, an Rmax of 88.8 RUs, a ka of 9.09e+06 M⁻¹ s⁻¹ and a kd of 0.00267 s⁻¹.

Take B4: binding was put at a Kd of 11.5 nM, the Rmax came out at 19.3 RUs, the ka was determined as 1.97e+07 M⁻¹ s⁻¹ and the kd stood at 0.226 s⁻¹.

The molecule B5 returned a Kd of 11.2 nM, an Rmax of 65.9 RUs, a ka of 1.74e+07 M⁻¹ s⁻¹ and a kd of 0.195 s⁻¹.

The molecule B6 yielded a dissociation constant (Kd) of 1 nM, an Rmax of 33.4 RUs, a ka of 1.18e+06 M⁻¹ s⁻¹ and a kd of 0.00118 s⁻¹.

Molecule B7 returned a dissociation constant Kd of 15 nM, an Rmax of 69.1 RUs, a ka of 1.73e+07 M⁻¹ s⁻¹ and a kd of 0.26 s⁻¹.

Still in this experiment, the particulars now being: ‘WT’ (S139A), 20 nM simeprevir.
B1 gave an equilibrium dissociation constant (Kd) of 5.4 nM, an Rmax of 215 RUs, a ka of 5.59e+09 M⁻¹ s⁻¹ and a kd of 31 s⁻¹.

The next experiment addresses T1, HCV NS3/4A PR (S139A). Description: Phage ELISA. The format is binding. The following applies: phage ELISA signal with simeprevir divided by signal without simeprevir. How it is done:
Specific binding to HCV NS3/4A PR (S139A) was assessed by phage ELISA using single phagemid scFv or Tn3 clones induced for expression as described ((Osbourn et al. 1996)). Briefly, individual TG1 colonies encoding phage clones from round 3 and round 4 selection outputs, and negative control clones, were grown in 96 well plates at […] shaking at 280 rpm to log phase in media containing 100 μg/ml ampicillin and 2% (w/v) glucose. Helper phage was then added to each well and the plates incubated at […] for 1 hour, shaking at 150 rpm. Plates were then centrifuged at 4500 rpm for 10 minutes at room temperature and the media was removed and replaced with media containing 100 μg/ml ampicillin and 50 μg/ml kanamycin. Plates were then incubated overnight at 25° C., shaking at 280 rpm. The following day, phage preparations were blocked by adding an equal volume of 2×PBS containing 6% (w/v) skimmed milk powder (Marvel) to each well of the plate.
Biotinylated HCV NS3/4A PR (S139A) was used to coat 96 well streptavidin-coated plates at 5 μg/ml […] in the presence and absence of a 3-fold excess of simeprevir (5.6 μM). Coated plates were washed with PBS and blocked with PBS containing 3% (w/v) skimmed milk powder (Marvel) for one hour. Following this blocking step, the plate wells were washed three times with PBS, prior to adding the blocked phage preps (produced as described in the phage rescue section). Phage preps were incubated with the antigens for 1 hour at room temperature prior to washing three times with PBS/Tween 20 (0.1% v/v). Phage that bound specifically to the antigen coated plate were detected using an anti-M13 phage-HRP tagged antibody (GE Healthcare), followed by detection using 3,3′, 5,5′-Tetramethylbenzidine (TMB; Sigma). The detection reaction was stopped using 0.5 M H2S04 and plates were read using a […] at 450 nm. Fluorescent readings determined for each clone binding to biotinylated HCV NS3/4A PR (S139A) in the presence of simeprevir was compared to those binding in the absence of simeprevir, by dividing the signal observed in the presence of simeprevir to the signal observed in the absence of simeprevir.
On to B1, for which the “Binding fold change [(HCV protease + Simeprevir binding)/HCV protease alone]” value (shortened to “Binding fold change”) stood at 23.8.

With B3, the “Binding fold change” value stood at 6.9.

As to B4, the “Binding fold change” value is listed as 12.7.

On to B5, for which the “Binding fold change” value is 30.3.

B6: the “Binding fold change” value stood at 12.5.

Turning to B7, the “Binding fold change” value worked out at 15.7.

The record behind these values is patent US20220380801A1, “TRIPARTITE SYSTEMS FOR PROTEIN DIMERIZATION AND METHODS OF USE” (priority 2019, published 2022).
